The values below come from publication PMC2847215.

Where two headings read alike, the source gives them in different places.

Common to all, as to experiment: EMSA
(In general: In EMSA bound probe runs differently from free probe, usually more slowly.)

Data set [1] concerns the target T1, rMcrA-S (UniProt P24200 1-277).
T1 sequence: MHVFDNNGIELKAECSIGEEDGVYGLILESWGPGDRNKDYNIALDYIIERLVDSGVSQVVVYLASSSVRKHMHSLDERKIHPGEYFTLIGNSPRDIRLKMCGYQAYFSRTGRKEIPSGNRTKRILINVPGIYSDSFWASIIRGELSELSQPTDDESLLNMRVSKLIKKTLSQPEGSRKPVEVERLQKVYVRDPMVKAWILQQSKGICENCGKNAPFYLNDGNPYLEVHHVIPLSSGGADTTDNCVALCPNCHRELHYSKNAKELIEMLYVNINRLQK

For data set [2], the target named is T1, rMcrA-S. This is another data set of the same source.
Data set [3] concerns the target T1, rMcrA-S. This is another data set of the same source.
In data set [4] the target is T1, rMcrA-S. The source holds these as a separate data set.

B1: cassette CCGG, single symmetric m5C in HpaII site (dsDNA)
DNA 1: GCCTTCAGCGCCGGCGGATCCAGT
DNA 2: ACTGGATCCGCCGGCGCTGAAGGC
modifications: m5C12 in strand 1 and m5C12 in strand 2 (positions from site name)
For the molecule B1, in data set [1], the binding result is on record as “binds”.

B2: TCGG cassette (dsDNA)
DNA 1: CCCTCTGTCGGAGGAGGCTCCTGC
DNA 2: GCAGGAGCCTCCTCCGACAGAGGG
modifications: m5C9 strand 1, m5C15 strand 2 (M.SssI)
Consider B2, for which the binding result in data set [2] is “binds”.

B3: C/A mismatch cassette (dsDNA)
DNA 1: GCCTTCAGCGCCGGCGGATCCAGT
DNA 2: ACTGGATCCGCCAGCGCTGAAGGC
modifications: m5C12 in strand 1 only
With B3, the binding result in data set [3] is on record as “no binding”.

B4: CCGG cassette (oligos 17/18) (dsDNA)
DNA 1: CCCTCTGCCGGAGGAGGATCCTGC
DNA 2: GCAGGATCCTCCTCCGGCAGAGGG
modifications: m5C9 strand 1, m5C15 strand 2 (M.SssI)
Regarding B4, in data set [2], the binding result is on record as “binds”.

B5: CGT cassette (dsDNA)
DNA 1: CCCTCTGACGTAGGAGGCTCCTGC
DNA 2: GCAGGAGCCTCCTACGTCAGAGGG
modifications: m5C9 strand 1, m5C15 strand 2 (M.SssI)
In the case of B5, the binding result in data set [3] was “no binding”.

B6: CGA and ACGA cassette (dsDNA)
DNA 1: CCCTCTGACGAAGGAGGCTCCTGC
DNA 2: GCAGGAGCCTCCTTCGTCAGAGGG
modifications: m5C9 strand 1, m5C15 strand 2 (M.SssI)
As to B6, the binding result in data set [4] is given as “binds”.

B7: GCGG cassette (dsDNA)
DNA 1: CCCTCTGGCGGAGGAGGCTCCTGC
DNA 2: GCAGGAGCCTCCTCCGCCAGAGGG
modifications: m5C9 strand 1, m5C15 strand 2 (M.SssI)
Regarding B7, the binding result in data set [4] is on record as “binds”.

B8: CCGA cassette (dsDNA)
DNA 1: CCCTCTGCCGAAGGAGGCTCCTGC
DNA 2: GCAGGAGCCTCCTTCGGCAGAGGG
modifications: m5C9 strand 1, m5C15 strand 2 (M.SssI)
Consider B8, for which the binding result in data set [2] is reported as “binds”.

B9: CGC cassette (dsDNA)
DNA 1: CCCTCTGACGCAGGAGGCTCCTGC
DNA 2: GCAGGAGCCTCCTGCGTCAGAGGG
modifications: m5C9 strand 1, m5C15 strand 2 (M.SssI)
In the case of B9, the binding result in data set [3] is “no binding”.

B10: TCGA cassette (dsDNA)
DNA 1: CCCTCTGTCGAAGGAGGCTCCTGC
DNA 2: GCAGGAGCCTCCTTCGACAGAGGG
modifications: m5C9 strand 1, m5C15 strand 2 (M.SssI)
With B10, the binding result in data set [2] is on record as “binds”.

B11: GCGA cassette (dsDNA)
DNA 1: CCCTCTGGCGAAGGAGGCTCCTGC
DNA 2: GCAGGAGCCTCCTTCGCCAGAGGG
modifications: m5C9 strand 1, m5C15 strand 2 (M.SssI)
Take B11: in data set [4], the binding result was “binds”.

B12: unmethylated cassette (oligos 7/8) (dsDNA)
DNA 1: GCCTTCAGCGCCGGCGGATCCAGT
DNA 2: ACTGGATCCGCCGGCGCTGAAGGC
With B12, the binding result in data set [3] is given as “no binding”.

B13: C/G hemimethylated HpaII cassette (dsDNA)
DNA 1: GCCTTCAGCGCCGGCGGATCCAGT
DNA 2: ACTGGATCCGCCGGCGCTGAAGGC
modifications: m5C12 in strand 1 only
For the molecule B13, the binding result in data set [3] is recorded as “binds”.

B14: CGG and ACGG cassette (dsDNA)
DNA 1: CCCTCTGACGGAGGAGGCTCCTGC
DNA 2: GCAGGAGCCTCCTCCGTCAGAGGG
modifications: m5C9 strand 1, m5C15 strand 2 (M.SssI)
As to B14, in data set [4], the binding result is on record as “binds”.
